{"source": "paper PMC10917276", "about": "“A tick saliva serpin, IxsS17 inhibits host innate immune system proteases and enhances host colonization by Lyme disease agent” (PLOS Pathogens, 2024)", "molecules": {"B1": {"name": "blood clotting factor Xa (enzyme)", "chain 1": "ANSFLEEMKKGHLERECMEETCSYEEAREVFEDSDKTNEFWNKYKDGDQCETSPCQNQGKCKDGLGEYTCTCLEGFEGKNCELFTRKLCSLDNGDCDQFCHEEQNSVVCSCARGYTLADNGKACIPTGPYPCGKQTLER", "chain 2": "IVGGQECKDGECPWQALLINEENEGFCGGTILSEFYILTAAHCLYQAKRFKVRVGDRNTEQEEGGEAVHEVEVVIKHNRFTKETYDFDIAVLRLKTPITFRMNVAPACLPERDWAESTLMTQKTGIVSGFGRTHEKGRQSTRLKMLEVPYVDRNSCKLSSSFIITQNMFCAGYDTKQEDACQGDSGGPHVTRFKDTYFVTGIVSWGEGCARKGKYGIYTKVTAFLKWIDRSMKTRGLPKAKSHAPEVITSSPLK"}, "B2": {"name": "rat skin trypsin IV (enzyme, UniProt P12788 24-247, looked up)", "chain": "IVGGYTCPKHLVPYQVSLHDGISHQCGGSLISDQWVLSAAHCYKRKLQVRLGEHNIHVLEGGEQFIDAEKIIRHPEYNKDTLDNDIMLIKLKSPAVLNSQVSTVSLPRSCASTDAQCLVSGWGNTVSIGGKYPALLQCLEAPVLSASSCKKSYPGQITSNMFCLGFLEGGKDSCDGDSGGPVVCNGEIQGIVSWGSVCAMRGKPGVYTKVCNYLSWIQETMANN", "notes": "rat trypsin IV, in house expressed; construct not described; also called rat trypsin IV; source: in house expressed"}, "B3": {"name": "C-terminal hexa-histidine tagged recombinant Ixodes scapularis serpin 17 (rIxsS17) (natural protein)", "chain": "DDISQDKWKLARANNYLGLNLLKQLPSNDKTNVFFSPFSVSTAMGMAYAGARGDTLEQLTLNFGYAADELNEGKVLALFKEQLQSTNDLPHDYTLNIANAAVAQEGYGILPEYTDALTSSFGAEYIEADFQKRGQEAIQKINAWVSNRTHGKVQSLFDEPPDFSTRLILLNAIYYKGTWLYEFDKTKTKPRSFYNGGVEKVQVPMMRLKSTLNHTYNAILNADLVDLPYVGNDFSMTIILPREKTGLASLKSVLTSQTLNLALQNMYPKDMKLKLPKFKLDTKYTLKPTLEAMGITKIFSADADLSGISGSRNLYVSDVLHKAVLEVNEEGSEAAAVTGFVIQLRTAAFVTPPPLPKVYVDHPFIFLIRNSRTNTIMFLGEINAL", "modifications": "glycosylated (sites not given)", "notes": "Ixodes scapularis tick saliva serpin 17 (IxsS17), GenBank EEC18973.1; Codon-optimised synthetic gene in pPICZαA; also called C-terminal-His-rIxsS17; C-terminal His-tagged rIsS17; source: Pichia pastoris X33, secreted into medium, purified (ammonium sulfate, Hi-Trap Chelating HP); not shown: His6, C-terminal, kept"}}, "key": {"[1]": {"molecular_target": "bovine pancreatic trypsin (bovine)"}, "[2]": {"molecular_target": "bovine pancreatic trypsin (bovine)", "assay": "discontinuous inhibition kinetics from residual protease activity (second-order rate constant); rIxsS17 50-1000 nM with bovine trypsin 14.6 nM, trypsin IV 12.5 nM or fXa 13.9 nM for 0-15 min at 37°C; kobs from semi-log plots, ka from the slope of kobs against rIxsS17 concentration"}, "[3]": {"molecular_target": "bovine pancreatic trypsin (bovine)", "assay": "stoichiometry of inhibition from residual protease activity (substrate hydrolysis); molar ratios of His-tagged rIxsS17 to protease 0, 2.5, 5, 10, 20, 25, 50; 15 min at 37°C; bovine trypsin 1.5 nM, rat trypsin IV 2.0 nM or factor Xa 13.9 nM; linear regression extrapolated to zero activity"}, "[4]": {"molecular_target": "B3", "assay": "discontinuous inhibition kinetics from residual protease activity (second-order rate constant); rIxsS17 50-1000 nM with bovine trypsin 14.6 nM, trypsin IV 12.5 nM or fXa 13.9 nM for 0-15 min at 37°C; kobs from semi-log plots, ka from the slope of kobs against rIxsS17 concentration", "conditions": "both partners purified"}, "blood clotting factor Xa": {"molecular_target": "B1", "assay": "stoichiometry of inhibition from residual protease activity (substrate hydrolysis); molar ratios of His-tagged rIxsS17 to protease 0, 2.5, 5, 10, 20, 25, 50; 15 min at 37°C; bovine trypsin 1.5 nM, rat trypsin IV 2.0 nM or factor Xa 13.9 nM; linear regression extrapolated to zero activity", "conditions": "both partners purified"}, "rat skin trypsin IV": {"molecular_target": "B2", "assay": "stoichiometry of inhibition from residual protease activity (substrate hydrolysis); molar ratios of His-tagged rIxsS17 to protease 0, 2.5, 5, 10, 20, 25, 50; 15 min at 37°C; bovine trypsin 1.5 nM, rat trypsin IV 2.0 nM or factor Xa 13.9 nM; linear regression extrapolated to zero activity", "conditions": "both partners purified"}}}
{"molecule": "N-terminal hexa-histidine tagged rIxsS17 with TEV site (natural protein)", "values": [{"measurement": "decrease in the inhibitory activity against trypsin of the N-terminal hexa-His construct (substrate hydrolysis assay)", "setting": "[1]", "value": 8.6, "unit": "%"}]}
{"molecule": "C-terminal hexa-histidine tagged recombinant Ixodes scapularis serpin 17 (rIxsS17) (from UniProt A0ACM8DKW3 71-455) (natural protein)", "values": [{"measurement": "kon", "setting": "[2]", "value": 2700, "unit": "M⁻¹ s⁻¹"}, {"measurement": "stoichiometry of inhibition (SI)", "setting": "[3]", "value": 12.9}]}
{"molecule": "B1", "values": [{"measurement": "kon", "setting": "[4]", "value": 540, "unit": "M⁻¹ s⁻¹"}]}
{"molecule": "B2", "values": [{"measurement": "kon", "setting": "[4]", "value": 3900, "unit": "M⁻¹ s⁻¹"}]}
{"molecule": "B3", "values": [{"measurement": "stoichiometry of inhibition (SI)", "setting": "blood clotting factor Xa", "value": 68}, {"measurement": "stoichiometry of inhibition (SI)", "setting": "rat skin trypsin IV", "value": 10.5}]}
